Experiments:
[1] = molecular target: BRIL-fused human Cx36 (cytoplasmic loop residues 109-187 replaced with cytochrome b562RIL) (UniProt Q9UKL4); assay: cryo-EM structure; single-particle cryo-EM of the purified gap junction channel in LMNG/CHS detergent; D6 symmetry; 50 mM phenylalanine added for Cx36-WT
[2] = molecular target: the molecule itself; assay: as above
[3] = molecular target: the molecule itself; assay: cryo-EM structure; single-particle cryo-EM of the purified gap junction channel in MSP1E1 nanodiscs with soybean polar lipid extract; D6, C6 or C1 symmetry; 50 mM phenylalanine added for Cx36-WT

## BRIL-fused human Cx36 (cytoplasmic loop residues 109-187 replaced with cytochrome b562RIL) (from UniProt Q9UKL4 1-108; P0ABE7 21-128; Q9UKL4 188-321)
[1]
  stoichiometry N: 12

B1: Wild-type human connexin 36 (Cx36/GJD2) gap junction channel (natural protein, UniProt Q9UKL4 1-321, looked up)
chain: MGEWTILERLLEAAVQQHSTMIGRILLTVVVIFRILIVAIVGETVYDDEQTMFVCNTLQPGCNQACYDRAFPISHIRYWVFQIIMVCTPSLCFITYSVHQSAKQRERRYSTVFLALDRDPPESIGGPGGTGGGGSGGGKREDKKLQNAIVNGVLQNTENTSKETEPDCLEVKELTPHPSGLRTASKSKLRRQEGISRFYIIQVVFRNALEIGFLVGQYFLYGFSVPGLYECNRYPCIKEVECYVSRPTEKTVFLVFMFAVSGICVVLNLAELNHLGWRKIKLAVRGAQAKRKSIYEIRNKDLPRVSVPNFGRTQSSDSAYV
notes: Connexin 36 (Cx36, GJD2), human, full length (Met1-Val321); The tags were cut off at an HRV 3C site between Cx36 and eYFP; residues of the site may be left at the C-terminus; also called Cx36-WT; Cx36_(LMNG)-WT; source: HEK293E, transiently transfected, purified (Rho-1D4 antibody resin, HRV 3C cleavage, Superose 6 Increase SEC); in LMNG/CHS or reconstituted in MSP1E1 soybean lipid nanodiscs; not …
[2]
  stoichiometry N: 12

B2: Human Cx36 with N-terminal residues 2-8 deleted (natural protein, UniProt Q9UKL4 1-321, looked up)
chain: MRLLEAAVQQHSTMIGRILLTVVVIFRILIVAIVGETVYDDEQTMFVCNTLQPGCNQACYDRAFPISHIRYWVFQIIMVCTPSLCFITYSVHQSAKQRERRYSTVFLALDRDPPESIGGPGGTGGGGSGGGKREDKKLQNAIVNGVLQNTENTSKETEPDCLEVKELTPHPSGLRTASKSKLRRQEGISRFYIIQVVFRNALEIGFLVGQYFLYGFSVPGLYECNRYPCIKEVECYVSRPTEKTVFLVFMFAVSGICVVLNLAELNHLGWRKIKLAVRGAQAKRKSIYEIRNKDLPRVSVPNFGRTQSSDSAYV
notes: Connexin 36 (Cx36, GJD2), human, full length with 7 N-terminal residues (2-8) deleted; Made by PCR from pXY-Cx36-WT; expressed and purified by the same protocol as Cx36-WT; also called Cx36-ΔN8; Cx36_(Nano)-ΔN8; source: HEK293E, transiently transfected, purified as Cx36-WT; reconstituted in MSP1E1 soybean lipid nanodiscs; not shown: eYFP, C-terminal, cleaved; 10xHis, C-terminal, cleaved; copies: …
[3]
  binding result: binds
